According to US20260250378A1:

Experiments:
[1] = target: Recombinant human CANX protein fused with the Fc region of human IgG1 at the C-terminus (HuCANX_hFc) (human) (UniProt P27824); experiment: ELISA, IgG1 coated 2 ug/ml, biotinylated antigen titrated (EC50 is of the antigen), streptavidin-HRP; curve is flat, value lies beyond the range shown
[2] = target: CNX-mcherry fluorescent protein expressed in Huh7 cells; experiment: immunofluorescence, Huh7 CNX-mcherry cells minus plain Huh7 cells, anti-human Alexa 647
[3] = target: CNX-his antigen (Genscript) (human) (UniProt P27824); experiment: ELISA with serial dilutions of the antibody on coated His-tagged human CNX
[4] = target: CNX-mcherry fluorescent protein expressed in Huh7 cells; experiment: immunofluorescence, Huh7 CNX-mcherry cells minus plain Huh7 cells, Alexa-coupled secondary

Chain of CNX-mcherry fluorescent protein expressed in Huh7 cells (P27824 21-592): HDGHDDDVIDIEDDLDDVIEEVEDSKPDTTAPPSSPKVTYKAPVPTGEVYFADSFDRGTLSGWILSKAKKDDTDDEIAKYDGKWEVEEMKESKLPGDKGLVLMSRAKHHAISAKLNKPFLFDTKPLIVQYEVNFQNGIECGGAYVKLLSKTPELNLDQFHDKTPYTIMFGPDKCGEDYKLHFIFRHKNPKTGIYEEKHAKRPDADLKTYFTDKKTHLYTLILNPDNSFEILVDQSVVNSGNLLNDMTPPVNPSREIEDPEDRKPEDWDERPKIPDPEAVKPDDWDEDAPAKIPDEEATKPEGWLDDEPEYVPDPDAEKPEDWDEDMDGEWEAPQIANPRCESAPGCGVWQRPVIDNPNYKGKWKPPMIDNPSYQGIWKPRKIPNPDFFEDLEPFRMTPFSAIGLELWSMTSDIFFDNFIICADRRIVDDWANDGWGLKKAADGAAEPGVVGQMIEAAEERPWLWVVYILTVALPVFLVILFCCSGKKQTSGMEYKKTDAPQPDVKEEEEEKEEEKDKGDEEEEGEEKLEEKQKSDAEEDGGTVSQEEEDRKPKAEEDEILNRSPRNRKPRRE
Chain of CNX-his antigen (Genscript) (human) (P27824 21-481 limits assumed): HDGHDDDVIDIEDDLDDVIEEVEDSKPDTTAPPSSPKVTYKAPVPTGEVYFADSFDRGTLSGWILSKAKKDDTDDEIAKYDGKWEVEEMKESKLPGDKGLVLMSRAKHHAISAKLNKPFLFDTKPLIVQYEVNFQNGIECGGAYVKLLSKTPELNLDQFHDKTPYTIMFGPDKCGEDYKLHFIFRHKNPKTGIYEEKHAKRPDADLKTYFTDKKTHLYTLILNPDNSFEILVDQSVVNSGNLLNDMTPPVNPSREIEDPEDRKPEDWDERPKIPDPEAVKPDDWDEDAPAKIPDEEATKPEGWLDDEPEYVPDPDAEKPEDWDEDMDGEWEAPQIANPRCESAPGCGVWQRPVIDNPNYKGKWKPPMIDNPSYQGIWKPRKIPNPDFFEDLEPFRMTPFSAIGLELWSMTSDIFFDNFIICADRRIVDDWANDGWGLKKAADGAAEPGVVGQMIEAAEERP
Chain of Recombinant human CANX protein fused with the Fc region of human IgG1 at the C-terminus (HuCANX_hFc) (human) (P27824 21-481 limits assumed): as above

## Neg Control (antibody)
[1]
  EC50: 147 nM

## negative control human IgG (antibody)
[2]
  Intensity (CNX+ cells - CNX -ve): 107

## CNX ab10286 (Abcam) (antibody)
[3]
  EC50 (read off the curve): 0.2 µg/mL

## CNX antibody ab22595 (Abcam)
[4]
  Intensity (CNX+ cells - CNX -ve): 3630
